Results reported in article PMC12516561 (2025).

B1: iRhom2 wild type (HA-tagged) [human] / beta-COP, endogenous [human (endogenous in HEK293T)] (parent)
chain 1: MASADKNGGSVSSVSSSRLQSRKPPNLSITIPPPEKETQAPGEQDSMLPEGFQNRRLKKSQPRTWAAHTTACPPSFLPKRKNPAYLKSVSLQEPRSRWQESSEKRPGFRRQASLSQSIRKGAAQWFGVSGDWEGQRQQWQRRSLHHCSMRYGRLKASCQRDLELPSQEAPSFQGTESPKPCKMPKIVDPLARGRAFRHPEEMDRPHAPHPPLTPGVLSLTSFTSVRSGYSHLPRRKRMSVAHMSLQAAAALLKGRSVLDATGQRCRVVKRSFAFPSFLEEDVVDGADTFDSSFFSKEEMSSMPDDVFESPPLSASYFRGIPHSASPVSPDGVQIPLKEYGRAPVPGPRRGKRIASKVKHFAFDRKKRHYGLGVVGNWLNRSYRRSISSTVQRQLESFDSHRPYFTYWLTFVHVIITLLVICTYGIAPVGFAQHVTTQLVLRNKGVYESVKYIQQENFWVGPSSIDLIHLGAKFSPCIRKDGQIEQLVLRERDLERDSGCCVQNDHSGCIQTQRKDCSETLATFVKWQDDTGPPMDKSDLGQKRTSGAVCHQDPRTCEEPASSGAHIWPDDITKWPICTEQARSNHTGFLHMDCEIKGRPCCIGTKGSCEITTREYCEFMHGYFHEEATLCSQVHCLDKVCGLLPFLNPEVPDQFYRLWLSLFLHAGVVHCLVSVVFQMTILRDLEKLAGWHRIAIIFILSGITGNLASAIFLPYRAEVGPAGSQFGLLACLFVELFQSWPLLERPWKAFLNLSAIVLFLFICGLLPWIDNIAHIFGFLSGLLLAFAFLPYITFGTSDKYRKRALILVSLLAFAGLFAALVLWLYIYPINWPWIEHLTCFPFTSRFCEKYELDQVLH
chain 2: MTAAENVCYTLINVPMDSEPPSEISLKNDLEKGDVKSKTEALKKVIIMILNGEKLPGLLMTIIRFVLPLQDHTIKKLLLVFWEIVPKTTPDGRLLHEMILVCDAYRKDLQHPNEFIRGSTLRFLCKLKEAELLEPLMPAIRACLEHRHSYVRRNAVLAIYTIYRNFEHLIPDAPELIHDFLVNEKDASCKRNAFMMLIHADQDRALDYLSTCIDQVQTFGDILQLVIVELIYKVCHANPSERARFIRCIYNLLQSSSPAVKYEAAGTLVTLSSAPTAIKAAAQCYIDLIIKESDNNVKLIVLDRLIELKEHPAHERVLQDLVMDILRVLSTPDLEVRKKTLQLALDLVSSRNVEELVIVLKKEVIKTNNVSEHEDTDKYRQLLVRTLHSCSVRFPDMAANVIPVLMEFLSDNNEAAAADVLEFVREAIQRFDNLRMLIVEKMLEVFHAIKSVKIYRGALWILGEYCSTKEDIQSVMTEIRRSLGEIPIVESEIKKEAGELKPEEEITVGPVQKLVTEMGTYATQSALSSSRPTKKEEDRPPLRGFLLDGDFFVAASLATTLTKIALRYVALVQEKKKQNSFVAEAMLLMATILHLGKSSLPKKPITDDDVDRISLCLKVLSECSPLMNDIFNKECRQSLSHMLSAKLEEEKLSQKKESEKRNVTVQPDDPISFMQLTAKNEMNCKEDQFQLSLLAAMGNTQRKEAADPLASKLNKVTQLTGFSDPVYAEAYVHVNQYDIVLDVLVVNQTSDTLQNCTLELATLGDLKLVEKPSPLTLAPHDFANIKANVKVASTENGIIFGNIVYDVSGAASDRNCVVLSDIHIDIMDYIQPATCTDAEFRQMWAEFEWENKVTVNTNMVDLNDYLQHILKSTNMKCLTPEKALSGYCGFMAANLYARSIFGEDALANVSIEKPIHQGPDAAVTGHIRIRAKSQGMALSLGDKINLSQKKTSI
B2: iRhom2 wild type (HA-tagged) [human] / 14-3-3 epsilon, endogenous [human (endogenous in HEK293T)] (parent)
chain 1: B1 chain 1
chain 2: MDDREDLVYQAKLAEQAERYDEMVESMKKVAGMDVELTVEERNLLSVAYKNVIGARRASWRIISSIEQKEENKGGEDKLKMIREYRQMVETELKLICCDILDVLDKHLIPAANTGESKVFYYKMKGDYHRYLAEFATGNDRKEAAENSLVAYKAASDIAMTELPPTHPIRLGLALNFSVFYYEILNSPDRACRLAKAAFDDAIAELDTLSEESYKDSTLIMQLLRDNLTLWTSDMQGDGEEQNKEALQDVEDENQ

Variants of: B1
Test: co-immunoprecipitation (HA-IP) with western blot quantification
Settings: iRhom1/2 DKO HEK293T cells, three independent experiments, read off a plot

Q: With chain 1 S239A as the variant, how does the ratio to parent read?
A: 0.98

Q: How did the ratio to parent turn out when chain 1 P233A R234A R235A K236A R237A M238A was run?
A: 1.15

Q: With chain 1 P233A R234A R235A K236A R237A M238A S239A as the variant, how does the ratio to parent read?
A: 1.05

Variants of: B2
Test: as above
Settings: with 14-3-3 epsilon, iRhom1/2 DKO HEK293T cells, three independent experiments, read off a plot

Q: With chain 1 S239A as the variant, how does the ratio to parent read?
A: 0.92

Q: For chain 1 P233A R234A R235A K236A R237A M238A, which ratio to parent is on record?
A: 1.3

Q: Which ratio to parent does the source give for chain 1 P233A R234A R235A K236A R237A M238A S239A here?
A: 2.1
